Three molecules from paper PMC8611064, “Structure of the class C orphan GPCR GPR158 in complex with RGS7-Gβ5” (Nature Communications, 2021) can be followed below.

Data set [1] addresses GPR158 (residues 1–863) (human) (UniProt Q5T848). Description: cryo-EM structure; GPR158 (1-863), RGS7-Flag and Gβ5 co-expressed, co-purified by anti-Flag resin and Superose 6 in LMNG/CHS, treated with 0.1% OG; 2:1:1 and 2:2:2 complexes sorted from one sample.
A further data set has as its target apo GPR158 (human) (UniProt Q5T848). Kind of data set: cryo-EM structure; apo GPR158 in 20 mM HEPES pH 7.5, 200 mM NaCl, 0.01% LMNG, 0.001% CHS, 5 mM EDTA, with 0.1% OG added; 12.7 mg/ml.
Data set [2] deals with the molecule itself. Description: cryo-EM structure; GPR158 (1-863), RGS7-Flag and Gβ5 co-expressed, co-purified by anti-Flag resin and Superose 6 in LMNG/CHS, treated with 0.1% OG; 2:1:1 and 2:2:2 complexes sorted from one sample.

For the molecule “RGS7–Gβ5 heterodimer (from UniProt P49802 1-495; O14775 1-395) (complex)”, in data set [1], the stoichiometry N (RGS7–Gβ5 heterodimer per GPR158 dimer) came out at 1 and the stoichiometry N (RGS7–Gβ5 heterodimers per GPR158 dimer) worked out at 2. Usually stoichiometry N stands for the number of molecules, sites or subunits per partner or assembly. As for “apo GPR158 (from UniProt Q5T848 24-710) (receptor)”, the stoichiometry N with apo GPR158 (human) worked out at 2 protomers.

B1: GPR158 (residues 1–863) (receptor, human, UniProt Q5T848 24-863, looked up)
chain: ASRDPQGRPDSPRERTPKGKPHAQQPGRASASDSSAPWSRSTDGTILAQKLAEEVPMDVASYLYTGDSHQLKRANCSGRYELAGLPGKWPALASAHPSLHRALDTLTHATNFLNVMLQSNKSREQNLQDDLDWYQALVWSLLEGEPSISRAAITFSTDSLSAPAPQVFLQATREESRILLQDLSSSAPHLANATLETEWFHGLRRKWRPHLHRRGPNQGPRGLGHSWRRKDGLGGDKSHFKWSPPYLECENGSYKPGWLVTLSSAIYGLQPNLVPEFRGVMKVDINLQKVDIDQCSSDGWFSGTHKCHLNNSECMPIKGLGFVLGAYECICKAGFYHPGVLPVNNFRRRGPDQHISGSTKDVSEEAYVCLPCREGCPFCADDSPCFVQEDKYLRLAIISFQALCMLLDFVSMLVVYHFRKAKSIRASGLILLETILFGSLLLYFPVVILYFEPSTFRCILLRWARLLGFATVYGTVTLKLHRVLKVFLSRTAQRIPYMTGGRVMRMLAVILLVVFWFLIGWTSSVCQNLEKQISLIGQGKTSDHLIFNMCLIDRWDYMTAVAEFLFLLWGVYLCYAVRTVPSAFHEPRYMAVAVHNELIISAIFHTIRFVLASRLQSDWMLMLYFAHTHLTVTVTIGLLLIPKFSHSSNNPRDDIATEAYEDELDMGRSGSYLNSSINSAWSEHSLDPEDIRDELKKLYAQLEIYKRKKMITNNPHLQKKRCSKKGLGRSIMRRITEIPETVSRQCSKEDKEGADHGTAKGTALIRKNPPESSGNTGKSKEETLKNRVFSLKKSHSTYDHVRDQTEESSSLPTESQEEETTENSTLESLSGKKLTQKLKE
notes: signal peptide in the construct; human GPR158 residues 1-863, followed by a PreScission protease site, GFP and a Twin-Strep II tag; No PreScission cleavage is told for the purification of the complex
Turning to B1, the “stoichiometry N” value in data set [2] worked out at 2 protomers.
